For this data set, the system named is Escherichia coli TOP10. Briefly: shrunken log2 fold change of peptide-encoding DNA abundance (4.5 h post-induction vs induction); higher = less antimicrobial activity (less host growth inhibition). Particulars: time post-induction: 4.5 h; library: site-saturation at positions 5, 18, 19, 20.
As for RRIRDRPPRLPRPRPRPKIKPRP, the “shrunken log2 fold change” value is 2.05. In the case of RRIRIRPPRLPRPRPRPEHRPRP it was -0.051; in that of RRIRYRPPRLPRPRPRPGRDPRP, -0.204; in that of RRIRTRPPRLPRPRPRPHNHPRP, -0.802. On to RRIRKRPPRLPRPRPRPHVSPRP, for which the “shrunken log2 fold change” value was -0.00259. For RRIRDRPPRLPRPRPRPIYHPRP, the “shrunken log2 fold change” value was -0.827. RRIRFRPPRLPRPRPRPRYPPRP: the “shrunken log2 fold change” value is -0.38. Consider RRIRNRPPRLPRPRPRPWIDPRP, for which the “shrunken log2 fold change” value was -0.0152. With RRIRWRPPRLPRPRPRPITWPRP, the “shrunken log2 fold change” value turned out to be 0.0636. As for RRIRKRPPRLPRPRPRPLLYPRP, the figure is 0.0166; as for RRIRLRPPRLPRPRPRPATSPRP, -0.149. Regarding RRIRTRPPRLPRPRPRPGNQPRP, the “shrunken log2 fold change” value was -0.0161. RRIRKRPPRLPRPRPRPCNFPRP: the “shrunken log2 fold change” value is -0.132. For the sequence RRIRKRPPRLPRPRPRPVADPRP, the “shrunken log2 fold change” value came out at 0.14. RRIRFRPPRLPRPRPRPLAYPRP: the “shrunken log2 fold change” value is -0.534. As for RRIRMRPPRLPRPRPRPNIRPRP, the figure is -0.169; as for RRIRYRPPRLPRPRPRPYCTPRP, -1.54; as for RRIRWRPPRLPRPRPRPCVQPRP, 2.8. As to RRIRFRPPRLPRPRPRPDGLPRP, the “shrunken log2 fold change” value turned out to be 0.00785. Consider RRIRRRPPRLPRPRPRPPDCPRP, for which the “shrunken log2 fold change” value stood at 0.326. For the sequence RRIRTRPPRLPRPRPRPEEHPRP, the “shrunken log2 fold change” value came out at 0.0062. In the case of RRIRPRPPRLPRPRPRPHMKPRP, the “shrunken log2 fold change” value was determined as 1.08.

On to RRIRARPPRLPRPRPRPNRTPRP, for which the “shrunken log2 fold change” value came to 0.197. In the case of RRIRKRPPRLPRPRPRPDPLPRP, the “shrunken log2 fold change” value worked out at 0.282.

Take RRIRYRPPRLPRPRPRPVRRPRP: the “shrunken log2 fold change” value turned out to be 0.0834.

Take RRIRNRPPRLPRPRPRPWDEPRP: the “shrunken log2 fold change” value is 0.0165.

As for RRIRCRPPRLPRPRPRPEFTPRP, the “shrunken log2 fold change” value was -0.194. Turning to RRIRARPPRLPRPRPRPVEYPRP, the “shrunken log2 fold change” value was 0.0729. As for RRIRGRPPRLPRPRPRPAHGPRP, the “shrunken log2 fold change” value is 0.204. Regarding RRIRARPPRLPRPRPRPSYQPRP, the “shrunken log2 fold change” value was -0.234. Take RRIRARPPRLPRPRPRPFSNPRP: the “shrunken log2 fold change” value was -0.342. Take RRIRPRPPRLPRPRPRPHAKPRP: the “shrunken log2 fold change” value amounted to 1.39. With RRIRPRPPRLPRPRPRPIVFPRP, the “shrunken log2 fold change” value is -0.293. Take RRIRLRPPRLPRPRPRPRAFPRP: the “shrunken log2 fold change” value is 0.25. For RRIRTRPPRLPRPRPRPGDRPRP, the “shrunken log2 fold change” value amounted to 0.0976. Regarding RRIRYRPPRLPRPRPRPTTAPRP, the “shrunken log2 fold change” value is -0.415.

For RRIRERPPRLPRPRPRPGEGPRP, the “shrunken log2 fold change” value came to 0.028. As to RRIRVRPPRLPRPRPRPATAPRP, the “shrunken log2 fold change” value worked out at 0.18.

Consider RRIRFRPPRLPRPRPRPIWTPRP, for which the “shrunken log2 fold change” value was -0.0298. Take RRIRERPPRLPRPRPRPDALPRP: the “shrunken log2 fold change” value is -0.0722.

For the sequence RRIRFRPPRLPRPRPRPKQPPRP, the “shrunken log2 fold change” value came out at 0.137.

Turning to RRIRCRPPRLPRPRPRPSCLPRP, the “shrunken log2 fold change” value is -0.499. As for RRIRPRPPRLPRPRPRPWCSPRP, the figure is -0.201. In the case of RRIRFRPPRLPRPRPRPYSHPRP, the “shrunken log2 fold change” value is -1.77. As for RRIRFRPPRLPRPRPRPWSEPRP, the figure is -0.173; as for RRIRFRPPRLPRPRPRPIGPPRP, 0.0274. Consider RRIRIRPPRLPRPRPRPLWHPRP, for which the “shrunken log2 fold change” value is -0.105. For the sequence RRIRARPPRLPRPRPRPLEQPRP, the “shrunken log2 fold change” value was found to be 0.156. Take RRIRNRPPRLPRPRPRPYEAPRP: the “shrunken log2 fold change” value is -0.143. Take RRIRCRPPRLPRPRPRPWRKPRP: the “shrunken log2 fold change” value came out at 0.119. Take RRIRYRPPRLPRPRPRPSYFPRP: the “shrunken log2 fold change” value was -0.684. As to RRIRCRPPRLPRPRPRPCLHPRP, the “shrunken log2 fold change” value was -0.824. RRIRTRPPRLPRPRPRPGKEPRP: the “shrunken log2 fold change” value is -0.00507. With RRIRTRPPRLPRPRPRPWCYPRP, the “shrunken log2 fold change” value is -0.291. In the case of RRIRQRPPRLPRPRPRPYRWPRP it was -0.0412; in that of RRIRGRPPRLPRPRPRPRQGPRP, 0.654. In the case of RRIRFRPPRLPRPRPRPRDIPRP it was -0.11; in that of RRIRARPPRLPRPRPRPEKRPRP, 0.128; in that of RRIRIRPPRLPRPRPRPAVIPRP, 0.0759. Turning to RRIRSRPPRLPRPRPRPCWTPRP, the “shrunken log2 fold change” value is -0.306. For RRIRSRPPRLPRPRPRPTRRPRP, the “shrunken log2 fold change” value came out at 0.109. On to RRIRARPPRLPRPRPRPESRPRP, for which the “shrunken log2 fold change” value is 0.147.

For RRIRYRPPRLPRPRPRPMFSPRP, the “shrunken log2 fold change” value was -1.07. RRIRLRPPRLPRPRPRPHLFPRP: the “shrunken log2 fold change” value is -0.0266.

Consider RRIRKRPPRLPRPRPRPYFLPRP, for which the “shrunken log2 fold change” value is -0.278.

Consider RRIRHRPPRLPRPRPRPFMEPRP, for which the “shrunken log2 fold change” value is -1.

RRIRMRPPRLPRPRPRPLLRPRP: the “shrunken log2 fold change” value is 0.0923. As for RRIRYRPPRLPRPRPRPLAGPRP, the “shrunken log2 fold change” value amounted to 0.0192. In the case of RRIRYRPPRLPRPRPRPALEPRP, the “shrunken log2 fold change” value was -0.486. In the case of RRIRMRPPRLPRPRPRPQSDPRP, the “shrunken log2 fold change” value was -0.00296. Regarding RRIRPRPPRLPRPRPRPQVIPRP, the “shrunken log2 fold change” value is -0.0452. For the sequence RRIRMRPPRLPRPRPRPSYVPRP, the “shrunken log2 fold change” value was -0.331. As for RRIRKRPPRLPRPRPRPYSCPRP, the figure is -0.0242; as for RRIRYRPPRLPRPRPRPHWQPRP, -0.0696; as for RRIRERPPRLPRPRPRPQMFPRP, 0.0221.

Regarding RRIRVRPPRLPRPRPRPLDAPRP, the “shrunken log2 fold change” value was found to be 0.571.

As for RRIRCRPPRLPRPRPRPGKKPRP, the “shrunken log2 fold change” value was -0.0838.

For the sequence RRIRGRPPRLPRPRPRPHANPRP, the “shrunken log2 fold change” value is 0.361. On to RRIRDRPPRLPRPRPRPIWLPRP, for which the “shrunken log2 fold change” value amounted to 0.0516. In the case of RRIRQRPPRLPRPRPRPSVHPRP it was -0.276; in that of RRIRPRPPRLPRPRPRPIVTPRP, -0.164. For the sequence RRIRERPPRLPRPRPRPEFHPRP, the “shrunken log2 fold change” value is -0.207. On to RRIRERPPRLPRPRPRPIMPPRP, for which the “shrunken log2 fold change” value was -0.356.

For RRIRDRPPRLPRPRPRPMVGPRP, the “shrunken log2 fold change” value came out at 0.564. RRIRIRPPRLPRPRPRPAVSPRP: the “shrunken log2 fold change” value is -0.0873. On to RRIRKRPPRLPRPRPRPGKHPRP, for which the “shrunken log2 fold change” value was 0.258. In the case of RRIRERPPRLPRPRPRPGKNPRP it was -0.212; in that of RRIRYRPPRLPRPRPRPPNTPRP, -0.686; in that of RRIRMRPPRLPRPRPRPRLRPRP, 1.17. Turning to RRIRDRPPRLPRPRPRPCSEPRP, the “shrunken log2 fold change” value was determined as 0.283. With RRIRPRPPRLPRPRPRPPFEPRP, the “shrunken log2 fold change” value was 0.596.

For RRIRWRPPRLPRPRPRPPHSPRP, the “shrunken log2 fold change” value was determined as 0.218.

On to RRIRERPPRLPRPRPRPGRAPRP, for which the “shrunken log2 fold change” value was 0.367. For RRIRKRPPRLPRPRPRPDQSPRP, the “shrunken log2 fold change” value worked out at 0.0875. RRIRCRPPRLPRPRPRPFGAPRP: the “shrunken log2 fold change” value was 0.102.

As to RRIRFRPPRLPRPRPRPNPLPRP, the “shrunken log2 fold change” value came out at 0.0861. As to RRIRQRPPRLPRPRPRPFMVPRP, the “shrunken log2 fold change” value is -0.686.

Take RRIRKRPPRLPRPRPRPPKGPRP: the “shrunken log2 fold change” value amounted to 0.333.

As to RRIRMRPPRLPRPRPRPAMRPRP, the “shrunken log2 fold change” value was 1.14. As to RRIRIRPPRLPRPRPRPWFQPRP, the “shrunken log2 fold change” value is -0.0137. On to RRIRGRPPRLPRPRPRPSIEPRP, for which the “shrunken log2 fold change” value was 0.36. As to RRIRPRPPRLPRPRPRPNKKPRP, the “shrunken log2 fold change” value is -0.238. As for RRIRERPPRLPRPRPRPMMMPRP, the “shrunken log2 fold change” value was -0.182. For the sequence RRIRERPPRLPRPRPRPWYQPRP, the “shrunken log2 fold change” value is -0.219.

On to RRIRNRPPRLPRPRPRPRTFPRP, for which the “shrunken log2 fold change” value is -0.078. Regarding RRIRNRPPRLPRPRPRPCYLPRP, the “shrunken log2 fold change” value is -1.19.

Turning to RRIRWRPPRLPRPRPRPADYPRP, the “shrunken log2 fold change” value was -0.123. In the case of RRIRRRPPRLPRPRPRPIISPRP it was -0.155; in that of RRIRQRPPRLPRPRPRPMQSPRP, 0.108; in that of RRIRWRPPRLPRPRPRPRVYPRP, -0.401.

Consider RRIRPRPPRLPRPRPRPQTTPRP, for which the “shrunken log2 fold change” value was -0.161. In the case of RRIRARPPRLPRPRPRPRERPRP, the “shrunken log2 fold change” value was 0.334. On to RRIRQRPPRLPRPRPRPQQLPRP, for which the “shrunken log2 fold change” value is -0.0824.

For RRIRDRPPRLPRPRPRPVCSPRP, the “shrunken log2 fold change” value stood at 0.222.

As to RRIRVRPPRLPRPRPRPMCGPRP, the “shrunken log2 fold change” value came out at 0.0281. In the case of RRIRARPPRLPRPRPRPQFCPRP it was -0.0724; in that of RRIRCRPPRLPRPRPRPGTYPRP, -0.628. Turning to RRIRNRPPRLPRPRPRPNLGPRP, the “shrunken log2 fold change” value was -0.00992. As for RRIRFRPPRLPRPRPRPTKTPRP, the “shrunken log2 fold change” value is -0.0652. Consider RRIRDRPPRLPRPRPRPALHPRP, for which the “shrunken log2 fold change” value was 0.438. For the sequence RRIRQRPPRLPRPRPRPDESPRP, the “shrunken log2 fold change” value is 0.0454. RRIRMRPPRLPRPRPRPWPPPRP: the “shrunken log2 fold change” value turned out to be 1.09. As for RRIRARPPRLPRPRPRPWNHPRP, the “shrunken log2 fold change” value is -0.128. With RRIRIRPPRLPRPRPRPNCFPRP, the “shrunken log2 fold change” value came to 0.00306. As for RRIRKRPPRLPRPRPRPGKIPRP, the figure is 0.494.

The values are drawn from the supplement of paper PMC9112550, “Optimization of the antimicrobial peptide Bac7 by deep mutational scanning” (BMC Biology, 2022).
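Note: peptides expressed intracellularly from a pBAD plasmid library in pooled LB shake-flask culture, induced with 0.3% L-arabinose, DNA abundance read by NGS, three biological replicates, DESeq2 with apeglm shrinkage.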
